The record followed here is paper doi:10.1101/2021.11.03.467182.

The target of the experiment is SARS-CoV-2 NTD-RBD-foldon (SARS-CoV-2 (strain Wuhan-1/2020) | bacteriophage T4) (UniProt P0DTC2). Description: SEC-MALS.

Substance “SARS-CoV-2 NTD-RBD-foldon (from UniProt P0DTC2 14-541)” came in with a stoichiometry N of 3.
